Values quoted from earlier work in publication PMC7811009, “Oxytocin modulates local topography of human functional connectome in healthy men at rest” (Communications Biology, 2021).

How the values were obtained:
[1] = intravenous infusion, primates; cited from earlier work
From the text: It is not yet clear which precise mechanisms mediate the effects of intravenous oxytocin on brain function. […] At least three mechanisms have been postulated. First, it is possible that the direct peripheral effects of oxytocin on oxytocin receptors expressed in vegetative territories, such as the heart, may be an indirect source of changes in the brain.

[2] = rhesus monkeys, cited from earlier work
From the text: Our findings support our previous observations that increases in oxytocin in systemic circulation cannot fully account for the changes in rCBF observed after intranasal oxytocin[11] and lend support to the contribution of nose-to-brain pathways to the effects of intranasal oxytocin on brain function. However, they cannot highlight the precise mechanisms of transport underlying its functional effects. We believe that most evidence to date concurs on the idea that oxytocin, when administered intranasally, may diffuse from the olfactory and respiratory epithelia in the middle and upper poster ...

In the case of “labelled synthetic oxytocin: labelled synthetic oxytocin given intravenously or intranasally to primates / rhesus monkeys in cited studies”, the “Synthetic oxytocin levels in the CSF” value [1] is given as “increased synthetic oxytocin levels in the CSF”, the Brain regions reached ([2]; administered intranasally) is given as “reaches several brain regions (orbitofrontal cortex, striatum, thalamus and brainstem)” and the “Labelled oxytocin in brain regions (orbitofrontal cortex, striatum, thalamus and brainstem)” value ([2]; same doses administered intravenously) is given as “No detectable amounts”.
